Laboratory results reported in patent publication US20260028389A1 (BIOCRYST PHARMACEUTICALS, published 2026).

T1: rhKLK14 (human, UniProt Q9P0G3 25-251)
T1 sequence (looked up): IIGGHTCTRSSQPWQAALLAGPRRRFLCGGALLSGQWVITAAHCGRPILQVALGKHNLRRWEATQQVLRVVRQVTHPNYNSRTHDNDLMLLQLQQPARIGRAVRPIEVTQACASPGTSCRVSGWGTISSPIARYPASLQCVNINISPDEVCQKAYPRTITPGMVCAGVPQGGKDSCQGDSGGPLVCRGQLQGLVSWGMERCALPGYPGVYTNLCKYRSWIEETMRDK


Columns and labels:
[1] = target: human FcRn (AcrobioSystems; Catalog No: FCM-H5286) (human) (UniProt P55899); assay: SPR Biacore 8K, antibody coupled to CM5 chip, human FcRn as analyte, pH 6.0, steady state affinity fit
KLK5 = KLK5 (UniProt Q9Y337 67-293, limits assumed); assay: cell-based or functional assay
[2] = target: T2, recombinant human KLK5 C-6His (Novoprotein, Catalog No. C415) (human, UniProt Q9Y337 23-293); assay: ELISA on captured KLK5 C-6His; binder incubated in human serum, day 0
T2 construct: Bought protein; also called KLK5 protein (Novoprotein); not shown: C-terminal 6xHis tag ('C-6His')

[3] = target: T2, recombinant human KLK5 C-6His …; assay: ELISA on captured KLK5 C-6His; binder incubated in human serum, day 7
rhKLK7 = rhKLK7 (human, UniProt P49862 30-253); assay: cell-based or functional assay
rhKLK14 = target: T1, rhKLK14; assay: cell-based or functional assay
[4] = target: T2, recombinant human KLK5 C-6His …; assay: ELISA on captured KLK5 C-6His; binder incubated in human serum, day 14
[5] = target: T3, human FcRn (AcrobioSystems; Catalog No: FCM-H5286) (human, UniProt P55899 24-297; P61769 21-119); assay: SPR Biacore 8K, polypeptide coupled to CM5 chip, human FcRn as analyte, pH 6.0, steady state affinity fit
T3 construct: Bought protein

[6] = target: T2, recombinant human KLK5 C-6His …; assay: ELISA on captured KLK5 C-6His; binder incubated in human serum, day 1
[7] = target: T2, recombinant human KLK5 C-6His …; assay: ELISA on captured KLK5 C-6His; binder incubated in human serum, day 4
[8] = target: T2, recombinant human KLK5 C-6His …; assay: SPR Biacore T200, polypeptide captured by anti-human IgG Fc, KLK5 as analyte, pH 7.4, steady state affinity fit
[9] = target: T2, recombinant human KLK5 C-6His …; assay: ELISA, KLK5 C-6His captured by anti-His mAb; binder incubated in human serum, day 7
[10] = target: T2, recombinant human KLK5 C-6His …; assay: ELISA, KLK5 C-6His captured by anti-His mAb; binder incubated in human serum, day 4
[11] = target: T2, recombinant human KLK5 C-6His …; assay: ELISA, KLK5 C-6His captured by anti-His mAb; binder incubated in human serum, day 14
[12] = target: T2, recombinant human KLK5 C-6His …; assay: ELISA, KLK5 C-6His captured by anti-His mAb; binder incubated in human serum, day 0
[13] = target: T2, recombinant human KLK5 C-6His …; assay: ELISA, KLK5 C-6His captured by anti-His mAb; binder incubated in human serum, day 1

rhKLK7, sequence (P49862 30-253): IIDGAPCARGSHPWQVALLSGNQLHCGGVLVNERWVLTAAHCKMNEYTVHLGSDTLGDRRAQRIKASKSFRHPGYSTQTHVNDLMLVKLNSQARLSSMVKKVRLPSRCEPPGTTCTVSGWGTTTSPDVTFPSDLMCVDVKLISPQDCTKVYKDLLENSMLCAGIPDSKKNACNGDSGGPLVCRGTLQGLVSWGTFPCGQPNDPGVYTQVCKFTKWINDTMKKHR

| Molecule | Kd [1] [nM] | IC50 of KLK5 enzymatic activity, pH 5.5 (KLK5) [nM] | IC50 of KLK5 enzymatic activity, pH 7.5 (KLK5) [nM] | EC50 [2] [nM] | EC50 [3] [nM] | KLK7 IC50 (nM) pH 7.5 (enzymatic activity) (rhKLK7) [nM] | KLK14 IC50 (nM) pH 8.0 (enzymatic activity) (rhKLK14) [nM] | EC50 [4] [nM] | Kd [5] [nM] | KLK5 IC50 nM pH 5.5 (enzymatic activity) (KLK5) [nM] | KLK5 IC50 nM pH 7.5 (enzymatic activity) (KLK5) [nM] | EC50 [6] [nM] | EC50 [7] [nM] | KLK14, percent inhibition at 316 nM SPINK9 polypeptide, pH 8.0 (rhKLK14) [%] | Kd [8] [nM] | EC50 [9] [nM] | EC50 [10] [nM] | EC50 [11] [nM] | EC50 [12] [nM] | EC50 [13] [nM] |
| --- | --- | --- | --- | --- | --- | --- | --- | --- | --- | --- | --- | --- | --- | --- | --- | --- | --- | --- | --- | --- |
| Rituximab (Roche) (antibody) | 3100 |  |  |  |  |  |  |  |  |  |  |  |  |  |  |  |  |  |  |  |
| Spink9-112.K62G.Fc (SEQ ID NO: 56) (Fc fusion, Mutant SPINK9 domain fused directly to a C-terminal IgG Fc) IECAKQTKQMVDCSHYKKLPPEQELYCTREYDPICGSDGKTYGNDCFFCSKVKKTDGTLKFVHFGKCEPKSCDKTHTCPPCPAPEAAGGPSVFLFPPKPKDTLMISRTPEVTCVVVDVSHEDPEVKFNWYVDGVEVHNAKTKPREEQYNSTYRVVSVLTVLHQDWLNGKEYKCKVSNKALPAPIEKTISKAKGQPREPQVYTLPPSREEMTKNQVSLTCLVKGFYPSDIAVEWESNGQPENNYKTTPPVLDSDGSFFLYSKLTVDKSRWQQGNVFSCSVLHEALHSHYTQKSLSLSPGK |  |  |  | 0.1 | 0.17 | 2.4 | 246 | 0.17 | 233 | 0.9 | 1.1 | 0.14 | 0.16 |  |  |  |  |  |  |  |
| Spink9-30.Fc (SEQ ID NO: 55) (Fc fusion, Mutant SPINK9 domain fused directly to a C-terminal IgG Fc) IECAKQTKQMVDCSHYKKLPPEQVSWCTREYDPICGSDGKTYKNDCFFCSKVKKTDGTLKFVHFGKCEPKSCDKTHTCPPCPAPEAAGGPSVFLFPPKPKDTLMISRTPEVTCVVVDVSHEDPEVKFNWYVDGVEVHNAKTKPREEQYNSTYRVVSVLTVLHQDWLNGKEYKCKVSNKALPAPIEKTISKAKGQPREPQVYTLPPSREEMTKNQVSLTCLVKGFYPSDIAVEWESNGQPENNYKTTPPVLDSDGSFFLYSKLTVDKSRWQQGNVFSCSVLHEALHSHYTQKSLSLSPGK |  |  |  | 0.08 | 0.1 | 10.8 |  | 0.13 | 229 | 2.4 | 2.2 | 0.1 | 0.1 | 0 | 0.0909 |  |  |  |  |  |
| SPINK9-112.2K62G.Fc (SEQ ID NO: 76) (Fc fusion, Mutant SPINK9 domain fused directly to a C-terminal IgG Fc) IECAKQTKQMVDCSHYKKLPPEQELYCTREYDPICGSDGKTYGNDCFFCSKVKKTDGTLKFVHFGKCEPKSCDKTHTCPPCPAPEAAGGPSVFLFPPKPKDTLYITREPEVTCVVVDVSHEDPEVKFNWYVDGVEVHNAKTKPREEQYNSTYRVVSVLTVLHQDWLNGKEYKCKVSNKALPAPIEKTISKAKGQPREPQVYTLPPSREEMTKNQVSLTCLVKGFYPSDIAVEWESNGQPENNYKTTPPVLDSDGSFFLYSKLTVDKSRWQQGNVFSCSVMHEALHNHYTQKSLSLSPGK |  |  |  |  |  |  |  |  | 189 |  |  |  |  |  |  | 0.11 | 0.08 | 0.065 | 0.06 | 0.059 |
| Spink9-183.Fc (SEQ ID NO: 57) (Fc fusion, Mutant SPINK9 domain fused directly to a C-terminal IgG Fc) IECAKQTKQMVDCSHYKKLPPQQQAYCTRDYDPICGSDGKTYKNDCFFCSKVKKTDGTLKFVHFGKCEPKSCDKTHTCPPCPAPEAAGGPSVFLFPPKPKDTLMISRTPEVTCVVVDVSHEDPEVKFNWYVDGVEVHNAKTKPREEQYNSTYRVVSVLTVLHQDWLNGKEYKCKVSNKALPAPIEKTISKAKGQPREPQVYTLPPSREEMTKNQVSLTCLVKGFYPSDIAVEWESNGQPENNYKTTPPVLDSDGSFFLYSKLTVDKSRWQQGNVFSCSVLHEALHSHYTQKSLSLSPGK |  |  |  | 0.07 | 0.11 | 5.4 |  | 0.1 | 222 | 3 | 1.4 | 0.09 | 0.12 | 0 | 0.0216 |  |  |  |  |  |
| Spink9 WT (Fc fusion, not shown: The C-terminal IgG Fc fragment of the wild-type fusion) IECAKQTKQMVDCSHYKKLPPGQQRFCHHMYDPICGSDGKTYKNDCFFCSKVKKTDGTLKFVHFGKC |  |  |  |  |  |  |  |  |  |  |  |  |  |  | 99 |  |  |  |  |  |

The remaining lines, values ahead:

| Kd [1] [nM] | IC50 of KLK5 enzymatic activity, pH 5.5 (KLK5) [nM] | IC50 of KLK5 enzymatic activity, pH 7.5 (KLK5) [nM] | EC50 [2] [nM] | EC50 [3] [nM] | KLK7 IC50 (nM) pH 7.5 (enzymatic activity) (rhKLK7) [nM] | KLK14 IC50 (nM) pH 8.0 (enzymatic activity) (rhKLK14) [nM] | EC50 [4] [nM] | Kd [5] [nM] | KLK5 IC50 nM pH 5.5 (enzymatic activity) (KLK5) [nM] | KLK5 IC50 nM pH 7.5 (enzymatic activity) (KLK5) [nM] | EC50 [6] [nM] | EC50 [7] [nM] | KLK14, percent inhibition at 316 nM SPINK9 polypeptide, pH 8.0 (rhKLK14) [%] | Kd [8] [nM] | EC50 [9] [nM] | EC50 [10] [nM] | EC50 [11] [nM] | EC50 [12] [nM] | EC50 [13] [nM] | Molecule |
| --- | --- | --- | --- | --- | --- | --- | --- | --- | --- | --- | --- | --- | --- | --- | --- | --- | --- | --- | --- | --- |
|  | 685 | 80 |  |  |  |  |  |  |  |  |  |  |  |  |  |  |  |  |  | Wild Type Spink9 (SEQ ID NO: 2) |
|  |  |  | 0.09 | 0.12 | 8.3 |  | 0.29 | 232 | 8.3 | 1.9 | 0.16 | 0.21 | 0 | 0.0189 |  |  |  |  |  | Spink9-186.Fc (SEQ ID NO: 58) (Fc fusion, Mutant SPINK9 domain fused directly to a C-terminal IgG Fc) IECAKQTKQMVDCSHYKKLPPAQLIYCTKEYDPICGSDGKTYKNDCFFCSKVKKTDGTLKFVHFGKCEPKSCDKTHTCPPCPAPEAAGGPSVFLFPPKPKDTLMISRTPEVTCVVVDVSHEDPEVKFNWYVDGVEVHNAKTKPREEQYNSTYRVVSVLTVLHQDWLNGKEYKCKVSNKALPAPIEKTISKAKGQPREPQVYTLPPSREEMTKNQVSLTCLVKGFYPSDIAVEWESNGQPENNYKTTPPVLDSDGSFFLYSKLTVDKSRWQQGNVFSCSVLHEALHSHYTQKSLSLSPGK |
|  |  |  | 0.05 | 0.1 | 43.6 |  | 0.11 | 231 | 3.5 | 1.5 | 0.08 | 0.12 | 0 | 0.0291 |  |  |  |  |  | Spink9-236.Fc (SEQ ID NO: 60) (Fc fusion, Mutant SPINK9 domain fused directly to a C-terminal IgG Fc) IECAKQTKQMVDCSHYKKLPPEQQLMCTREYDPICGSDGKTYKNDCFFCSKVKKTDGTLKFVHFGKCEPKSCDKTHTCPPCPAPEAAGGPSVFLFPPKPKDTLMISRTPEVTCVVVDVSHEDPEVKFNWYVDGVEVHNAKTKPREEQYNSTYRVVSVLTVLHQDWLNGKEYKCKVSNKALPAPIEKTISKAKGQPREPQVYTLPPSREEMTKNQVSLTCLVKGFYPSDIAVEWESNGQPENNYKTTPPVLDSDGSFFLYSKLTVDKSRWQQGNVFSCSVLHEALHSHYTQKSLSLSPGK |
